Drawing on paper PMC10705891, this text covers Kd for two molecules.

The target of this data set is HopU1 (Pseudomonas syringae, UniProt Q88A91 1-264). The data set is described as follows: MST. The settings on record: protein: recombinant; tags: C-terminal His6 (pET22b NdeI/XhoI, Ni-NTA; tag position implied by vector).

B1: H2 RNA aptamer (structured_RNA)
RNA: GCCACCAACGACAUUACGCAUUGCUUCUAAAGGGUGUGCCGUUGAUAUAAAUAGUGCCCAU
Consider B1, for which the equilibrium dissociation constant (Kd) (in general, the free concentration of one partner at which half of the binding sites on the other are occupied at equilibrium, for simple one-to-one binding) is 6.41 ± 0.48 nM.

B2: H1 RNA aptamer (structured_RNA)
RNA: GCCACCAACGACAUUUUGUCAAUCUGUAGAAAAAAUCAGGGUUGAUAUAAAUAGUGCCCAU
Regarding B2, the Kd amounted to 6.71 ± 0.69 nM.
